Results as given in patent US20230406951A1 (Pfizer, published 2023).

T1: human TNFR2 (human, UniProt P20333 23-461)
T1 sequence: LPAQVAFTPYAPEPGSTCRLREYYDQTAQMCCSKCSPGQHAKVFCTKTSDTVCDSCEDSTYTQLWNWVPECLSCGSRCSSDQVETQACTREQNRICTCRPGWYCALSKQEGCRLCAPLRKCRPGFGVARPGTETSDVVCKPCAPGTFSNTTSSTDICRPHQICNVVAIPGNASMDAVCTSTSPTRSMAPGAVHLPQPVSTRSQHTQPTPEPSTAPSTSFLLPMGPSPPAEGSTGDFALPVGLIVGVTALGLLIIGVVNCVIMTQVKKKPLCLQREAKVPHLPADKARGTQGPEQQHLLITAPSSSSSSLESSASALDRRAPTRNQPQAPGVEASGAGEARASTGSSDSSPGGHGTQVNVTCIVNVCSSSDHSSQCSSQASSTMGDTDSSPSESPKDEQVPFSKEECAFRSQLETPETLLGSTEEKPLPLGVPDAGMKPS

T2: cynomolgus monkey TNFR2 (cynomolgus monkey, UniProt P20333 23-461 (human entry))
T2 chain: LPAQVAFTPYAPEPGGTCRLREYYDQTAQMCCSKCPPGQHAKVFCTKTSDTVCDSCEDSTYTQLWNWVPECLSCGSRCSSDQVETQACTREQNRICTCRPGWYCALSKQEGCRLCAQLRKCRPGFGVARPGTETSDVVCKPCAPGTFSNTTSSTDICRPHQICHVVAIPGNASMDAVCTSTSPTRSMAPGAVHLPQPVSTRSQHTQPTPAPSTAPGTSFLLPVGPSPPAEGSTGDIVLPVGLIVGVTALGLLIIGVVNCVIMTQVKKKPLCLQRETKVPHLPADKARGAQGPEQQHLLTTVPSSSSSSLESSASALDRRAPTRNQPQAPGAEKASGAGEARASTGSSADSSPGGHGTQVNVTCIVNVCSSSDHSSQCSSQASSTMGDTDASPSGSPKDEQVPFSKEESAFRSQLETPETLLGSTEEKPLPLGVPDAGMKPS

T3: biotinylated human TNFR2 (human, UniProt P20333 23-257, biotinylated)
T3 construct: Soluble biotinylated protein captured on a streptavidin chip for SPR; also called HuTNFR2
T3 sequence: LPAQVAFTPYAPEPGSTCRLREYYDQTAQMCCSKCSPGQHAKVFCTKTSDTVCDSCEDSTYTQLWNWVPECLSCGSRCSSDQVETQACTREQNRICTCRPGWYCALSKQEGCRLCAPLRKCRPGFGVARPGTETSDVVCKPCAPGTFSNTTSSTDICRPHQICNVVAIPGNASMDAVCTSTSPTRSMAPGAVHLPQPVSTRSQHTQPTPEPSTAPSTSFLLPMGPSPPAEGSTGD

T4: biotinylated cyno TNFR2 (cynomolgus monkey, UniProt P20333 23-257 (human entry), limits assumed, biotinylated)
T4 construct: Soluble biotinylated protein captured on a streptavidin chip for SPR; also called CyTNFR2
T4 chain: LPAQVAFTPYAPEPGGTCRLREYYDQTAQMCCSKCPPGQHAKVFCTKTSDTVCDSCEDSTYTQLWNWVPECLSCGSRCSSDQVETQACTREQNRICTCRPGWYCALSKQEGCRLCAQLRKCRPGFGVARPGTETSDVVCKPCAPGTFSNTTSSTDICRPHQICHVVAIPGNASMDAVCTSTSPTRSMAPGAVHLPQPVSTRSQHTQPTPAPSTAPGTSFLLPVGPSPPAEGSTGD

T5: human TNFR2 (human, UniProt P20333 23-461)
T5 construct: expressed on the surface of CHO cells; also called HuTNFR2; TNFRSF1B
T5 sequence: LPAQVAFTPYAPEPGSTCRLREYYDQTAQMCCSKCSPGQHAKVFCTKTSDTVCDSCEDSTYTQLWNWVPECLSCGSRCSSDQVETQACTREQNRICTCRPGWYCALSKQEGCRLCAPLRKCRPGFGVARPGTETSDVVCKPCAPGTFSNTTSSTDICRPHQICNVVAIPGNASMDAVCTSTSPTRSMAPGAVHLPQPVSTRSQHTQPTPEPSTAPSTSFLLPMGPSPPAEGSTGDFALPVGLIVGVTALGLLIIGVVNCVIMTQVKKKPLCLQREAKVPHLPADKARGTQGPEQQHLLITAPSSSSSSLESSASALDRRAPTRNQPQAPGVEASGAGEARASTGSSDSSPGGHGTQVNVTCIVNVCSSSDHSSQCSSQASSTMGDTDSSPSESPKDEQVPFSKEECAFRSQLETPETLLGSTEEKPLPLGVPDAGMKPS


Tests used:
human TNFR2 [1] = biological target: T1, human TNFR2; test: cell-based or functional assay
human TNFR2 [2] = biological target: T1, human TNFR2; test: cell-based or functional assay; remark: listed apart in the source
cynomolgus monkey TNFR2 [3] = biological target: T2, cynomolgus monkey TNFR2; test: cell-based or functional assay
human TNFR2 [4] = biological target: T1, human TNFR2; test: cell-based or functional assay; remark: listed apart in the source
human TNFR2 [5] = biological target: T1, human TNFR2; test: cell-based or functional assay; remark: listed apart in the source
cynomolgus monkey TNFR2 [6] = biological target: T2, cynomolgus monkey TNFR2; test: cell-based or functional assay
human TNFR2 [7] = biological target: T1, human TNFR2; test: binding to human TNFR2 CHO cells
human TNFR2 [8] = biological target: T1, human TNFR2; test: binding to human TNFR2 CHO cells; remark: listed apart in the source
cynomolgus monkey TNFR2 [9] = biological target: T2, cynomolgus monkey TNFR2; test: binding to CHO cells over-expressing cyno TNFR2
human TNFR2 [10] = biological target: T1, human TNFR2; test: binding to CHO cells over-expressing human TNFR2
cynomolgus monkey TNFR2 [11] = biological target: T2, cynomolgus monkey TNFR2; test: binding to cyno TNFR2 CHO cells (repeats Table 1)
human TNFR2 [12] = biological target: T1, human TNFR2; test: binding to human TNFR2 CHO cells (repeats Table 1)
biotinylated human TNFR2 = biological target: T3, biotinylated human TNFR2; test: SPR (BIAcore), biotinylated TNFR2 captured on streptavidin chip, antibody as analyte (apparent affinity)
Description: (§1) Increased avidity was confirmed by Surface Plasmon Resonance (SPR) using a BIAcore. Briefly, biotinylated human- or cyno-TNFR2 was captured on the surface of a streptavidin chip for 60 seconds at a flow rate of […]. […] The dissociation phase was then initiated with running buffer (HBS-EP+) injected for 600 seconds at […]. Data were analyzed using the Biacore Evaluation Software.

biotinylated cyno TNFR2 = biological target: T4, biotinylated cyno TNFR2; test: as above
Description: as §1

human TNFR2 [13] = biological target: T5, human TNFR2; test: binding to human TNFR2 CHO cells, IgG format

Jurkat (ng/ml), EC50 in NF-KB-GFP reporter assay (human TNFR2 [1]) [ng/mL] | EC50 (HuPBMC) (human TNFR2 [2]) [nM] | Jurkat EC50 (human TNFR2 [2]) [µg/mL] | EC50 (CyPBMC) (cynomolgus monkey TNFR2 [3]) [nM] | EC50 Jurkat (human TNFR2 [4]) [µg/mL] | EC50 HuPBMC (ICAM-1 up-regulation) (human TNFR2 [5]) [µg/mL] | EC50 CyPBMC (CD25+/Ki67+ of CD4+ cells) (cynomolgus monkey TNFR2 [6]) [µg/mL] | EC50 (human TNFR2 [7]) [nM] | EC50 (human TNFR2 [8]) [nM] | EC50 (cynomolgus monkey TNFR2 [9]) [µg/mL] | EC50 (human TNFR2 [10]) [µg/mL] | EC50 (cynomolgus monkey TNFR2 [11]) [µg/mL] | EC50 (human TNFR2 [12]) [µg/mL] | Kd (biotinylated human TNFR2) [nM] | koff (biotinylated human TNFR2) [s⁻¹] | kon (biotinylated human TNFR2) [M⁻¹ s⁻¹] | Kd (biotinylated cyno TNFR2) [nM] | koff (biotinylated cyno TNFR2) [s⁻¹] | kon (biotinylated cyno TNFR2) [M⁻¹ s⁻¹] | EC50 (human TNFR2 [13]) [nM] | Binder
711 | 1.4 | 1.74 | 15 | 0.526 | 1.4 | 27.2 | 1.13 | 1.13 | 0.13 | 0.106 | 0.13 | 0.106 | 0.11 | 0.00125 | 1.13e+07 | 0.89 | 0.00996 | 1.12e+07 |  | GBT-TNFR2-854 (parental) (antibody, human IgG2, kappa, V domains shown, Chimeric mouse V / human IgG2 effector-null, kappa; same hybridoma clone as IgG1 825) VH: QVQLKESGPGLVAPSQSLSITCTVSGFSFPSSGVDWVRQSPGKGLEWLGVTWGVGSTHYNSALKSRLSISKDNSKSQVFLKMNSLQTEDTAIYYCASGEWDEGFVYWGQGTLVTVSA VL: DIVMTQSQKFMSTTVGDRVSITCKASQNVGTAVAWYQQKPGQSPKLLIYSASNRYTGVPDRFTGSGSGTDFTLTISNMQSEDLADYFCQQYSSYPLTFGGGTKLEIKR
 |  |  |  |  |  |  |  |  |  |  |  |  |  |  |  |  |  |  | 0.67 | GBT-TNFR2-1765 (antibody, human IgG2, kappa, V domains shown) VH: QVQLVQSGAEVKKPGASVKVSCKVSGFSFPSSGVDWVRQAPGQGLEWLGVTWGVGSTHYNQKFQGRVTITKDTSKSTVYMELSSLRSEDTAVYYCASGEWDEGFVYWGQGTLVTVSS VL: DIQLTQSPSFLSASVGDRVTITCKASQNVGTAVAWYQQKPGKAPKLLIYAASTLQSGVPSRFSGSGSGTEFTLTISSLQPEDFATYYCQQYSSYPLTFGGGTKVEIKR
